From patent publication US20230059341A1 (TESARO, published 2023) come the findings set out here.

Like-named read-outs stand apart in the source and are kept apart here.

Experiment [1] concerns the target T1, PD-1 protein constitutively expressed on engineered CHO K1 cells (UniProt Q15116 25-288, limits assumed).
T1 construct: whole, on cells; also called programmed cell death protein 1
Kind of experiment: MSD potency assay: competitive binding on CHO K1 cells expressing PD-1, inhibition of PD-L1-mFc binding, ECL; percent of reference material.
Experimental: (§1) The Meso Scale Discovery (MSD) potency assay employs engineered CHO K1 cells constitutively expressing the PD-1 protein. […] The readout is measured using a specific detection antibody mixture that releases an electrochemiluminescence (ECL) signal that can be quantified.

Experiment [2] addresses T2, human PD-1 on PD-1 effector cells (Jurkat T cells, Promega #J1155) (human, UniProt Q15116 25-288). Put plainly: cell-based or functional assay.
For experiment [3], the target named is T3, Neonatal Fc Receptor (FcRn) (UniProt P55899 24-297; P61769 21-119, limits assumed). Kind of experiment: FcRn binding assay, BIACORE (SPR). A general note: SPR reads the build-up and loss of mass on a sensor chip optically.
T3 sequence (P55899 24-297 limits assumed, chain 1 of 2): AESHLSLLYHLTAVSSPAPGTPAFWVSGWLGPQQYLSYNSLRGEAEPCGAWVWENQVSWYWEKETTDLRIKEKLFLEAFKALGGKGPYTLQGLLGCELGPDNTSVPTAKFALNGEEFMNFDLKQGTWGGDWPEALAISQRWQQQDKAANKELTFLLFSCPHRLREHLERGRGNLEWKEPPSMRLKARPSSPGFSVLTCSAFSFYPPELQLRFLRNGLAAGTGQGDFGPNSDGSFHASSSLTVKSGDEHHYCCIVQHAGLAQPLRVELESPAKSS
T3 sequence (P61769 21-119 limits assumed, chain 2 of 2): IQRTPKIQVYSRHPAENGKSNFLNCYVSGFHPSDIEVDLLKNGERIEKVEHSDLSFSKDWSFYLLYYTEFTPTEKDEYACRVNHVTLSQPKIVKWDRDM
Experiment [4] concerns the target T1, PD-1 protein constitutively expressed …. Kind of experiment: MSD potency assay: competitive binding on CHO K1 cells expressing PD-1, inhibition of PD-L1-mFc binding, ECL; percent of reference material. The source holds these as a separate data set.
Experimental: as §1
The target of experiment [5] is T3, Neonatal Fc Receptor (FcRn). Put plainly: FcRn binding assay, BIACORE (SPR). The source holds these as a separate data set.
The target of experiment [6] is T2, human PD-1 on PD-1 effector cells …. Put plainly: cell-based or functional assay. This is another data set of the same source.
The target is the same in experiment [7]. Kind of experiment: cell-based or functional assay. This is another data set of the same source.
Experiment [8] deals with T1, PD-1 protein constitutively expressed …. Kind of experiment: MSD potency assay: competitive binding on CHO K1 cells expressing PD-1, inhibition of PD-L1-mFc binding, ECL; percent of reference material. The source holds these as a separate data set.
Experimental: as §1
Experiment [9] deals with T3, Neonatal Fc Receptor (FcRn). Put plainly: FcRn binding assay, BIACORE (SPR). The source holds these as a separate data set.
In experiment [10] the target is T2, human PD-1 on PD-1 effector cells …. Put plainly: cell-based or functional assay. The source holds these as a separate data set.
Experiment [11] concerns the target T3, Neonatal Fc Receptor (FcRn). Kind of experiment: BIACORE (SPR), antibody immobilized on sensor chip, FcRn injected as analyte.
Experimental: FcRn binding was assessed via BIACORE analysis. […] Various concentrations of analyte (FcRn) were injected for analysis of the association and dissociation properties.
The target is the same in experiment [12]. Put plainly: FcRn binding assay, BIACORE (SPR). The source holds these as a separate data set.

T2 sequence (Q15116 25-288): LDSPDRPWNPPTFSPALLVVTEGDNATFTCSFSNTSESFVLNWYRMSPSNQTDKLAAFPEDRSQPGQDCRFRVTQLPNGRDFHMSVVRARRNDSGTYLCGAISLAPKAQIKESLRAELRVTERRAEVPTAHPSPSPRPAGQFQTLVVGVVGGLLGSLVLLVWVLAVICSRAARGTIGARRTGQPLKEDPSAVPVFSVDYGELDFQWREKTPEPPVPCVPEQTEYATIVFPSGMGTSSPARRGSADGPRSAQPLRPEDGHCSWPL
T1 sequence (Q15116 25-288 limits assumed, change not shown): as the sequence (Q15116 25-288) above

B1: Dostarlimab, H2O2 treated, 25° C., 2 weeks (antibody, human IgG4 S228P, kappa)
heavy: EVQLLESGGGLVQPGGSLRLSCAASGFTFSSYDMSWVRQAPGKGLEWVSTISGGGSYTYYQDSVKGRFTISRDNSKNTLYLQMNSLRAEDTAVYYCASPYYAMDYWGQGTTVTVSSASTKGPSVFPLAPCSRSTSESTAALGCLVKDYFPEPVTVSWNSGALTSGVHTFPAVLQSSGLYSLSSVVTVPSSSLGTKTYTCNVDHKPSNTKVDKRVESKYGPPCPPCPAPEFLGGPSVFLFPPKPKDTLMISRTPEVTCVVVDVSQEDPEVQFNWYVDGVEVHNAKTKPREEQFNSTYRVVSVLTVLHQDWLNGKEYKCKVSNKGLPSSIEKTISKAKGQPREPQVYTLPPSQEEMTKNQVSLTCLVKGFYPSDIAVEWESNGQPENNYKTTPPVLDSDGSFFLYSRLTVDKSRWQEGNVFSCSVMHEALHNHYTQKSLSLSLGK
light: DIQLTQSPSFLSAYVGDRVTITCKASQDVGTAVAWYQQKPGKAPKLLIYWASTLHTGVPSRFSGSGSGTEFTLTISSLQPEDFATYYCQHYSSYPWTFGQGTKLEIKRTVAAPSVFIFPPSDEQLKSGTASVVCLLNNFYPREAKVQWKVDNALQSGNSQESVTEQDSKDSTYSLSSTLTLSKADYEKHKVYACEVTHQGLSSPVTKSFNRGEC
modifications: percent of population: Trp 50 oxidation 1.3; Asn 137 deamidation 1.3; percent of population: Met 34 oxidation 28.8; Met 83 oxidation 1.1; Met 103 oxidation 86.1; Met 248 oxidation 99.6; Asn 311 deamidation 7.4; Met 354 oxidation 99.8; Asn 380 deamidation 10.5; Asn 385 deamidation 1.9; Met 424 oxidation 98.1; Lys 443 clipped 97.7
notes: 0.1% (v:v) H2O2; also called H2O2, 25° C., 2 weeks
Usually Kd stands for the free concentration of one partner at which half of the binding sites on the other are occupied at equilibrium, for simple one-to-one binding. Low values mean a tighter complex, high ones a looser complex. Turning to B1, the “Relative Potency, MSD Binding” value in [1] was 74%. Moreover, in [2], the “Relative Potency, Cell-Based Bioassay” value was 47%. For the same molecule, the Kd in experiment [3] amounted to 12400 nM.

B2: Dostarlimab, AAPH treated, 40° C., 1 day (antibody, human IgG4 S228P, kappa)
heavy: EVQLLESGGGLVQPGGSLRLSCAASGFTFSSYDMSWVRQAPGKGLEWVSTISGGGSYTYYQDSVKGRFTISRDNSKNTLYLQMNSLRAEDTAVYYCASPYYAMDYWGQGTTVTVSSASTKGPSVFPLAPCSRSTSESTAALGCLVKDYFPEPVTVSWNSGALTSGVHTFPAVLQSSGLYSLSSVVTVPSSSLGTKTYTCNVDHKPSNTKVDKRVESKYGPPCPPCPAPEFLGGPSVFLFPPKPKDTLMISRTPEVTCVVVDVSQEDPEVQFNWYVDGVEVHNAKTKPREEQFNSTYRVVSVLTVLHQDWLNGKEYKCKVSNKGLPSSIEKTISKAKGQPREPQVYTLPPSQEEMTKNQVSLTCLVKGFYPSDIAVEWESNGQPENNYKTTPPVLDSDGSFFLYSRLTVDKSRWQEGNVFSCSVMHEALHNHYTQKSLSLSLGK
light: DIQLTQSPSFLSAYVGDRVTITCKASQDVGTAVAWYQQKPGKAPKLLIYWASTLHTGVPSRFSGSGSGTEFTLTISSLQPEDFATYYCQHYSSYPWTFGQGTKLEIKRTVAAPSVFIFPPSDEQLKSGTASVVCLLNNFYPREAKVQWKVDNALQSGNSQESVTEQDSKDSTYSLSSTLTLSKADYEKHKVYACEVTHQGLSSPVTKSFNRGEC
modifications: percent of population: Trp 50 oxidation 38.9; Asn 137 deamidation 1.2; percent of population: Met 103 oxidation 2.5; Met 248 oxidation 47.7; Asn 311 deamidation 6.5; Met 354 oxidation 8.2; Asn 380 deamidation 8.6; Asn 385 deamidation 1.3; Met 424 oxidation 26.2; Asn 430 deamidation 1.1; Lys 443 clipped 96.7
notes: 5 mM AAPH; HMW 4.9%; also called AAPH, 40° C., 1 day; AAPH Day 1
In the case of B2, in experiment [4], the “Relative Potency, MSD Binding” value came out at 76%. In experiment [5], the dissociation constant Kd was 2340 nM. The “Relative Potency, Cell-Based Bioassay” value in [6] was determined as 44%.

B3: Dostarlimab, AAPH treated, T0 (exposed to AAPH, no incubation) (antibody, human IgG4 S228P, kappa)
heavy: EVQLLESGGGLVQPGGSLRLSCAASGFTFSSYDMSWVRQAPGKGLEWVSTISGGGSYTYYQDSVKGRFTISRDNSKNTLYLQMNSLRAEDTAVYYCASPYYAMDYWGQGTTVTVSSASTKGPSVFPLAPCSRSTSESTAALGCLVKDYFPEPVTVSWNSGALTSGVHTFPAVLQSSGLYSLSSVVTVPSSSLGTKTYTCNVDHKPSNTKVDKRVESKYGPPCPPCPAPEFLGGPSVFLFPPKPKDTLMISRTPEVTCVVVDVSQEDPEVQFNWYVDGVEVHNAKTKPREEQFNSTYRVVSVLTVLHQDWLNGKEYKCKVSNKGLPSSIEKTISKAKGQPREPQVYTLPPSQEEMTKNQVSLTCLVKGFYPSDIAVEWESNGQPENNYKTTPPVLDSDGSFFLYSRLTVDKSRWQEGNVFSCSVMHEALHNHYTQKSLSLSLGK
light: DIQLTQSPSFLSAYVGDRVTITCKASQDVGTAVAWYQQKPGKAPKLLIYWASTLHTGVPSRFSGSGSGTEFTLTISSLQPEDFATYYCQHYSSYPWTFGQGTKLEIKRTVAAPSVFIFPPSDEQLKSGTASVVCLLNNFYPREAKVQWKVDNALQSGNSQESVTEQDSKDSTYSLSSTLTLSKADYEKHKVYACEVTHQGLSSPVTKSFNRGEC
modifications: percent of population: Asn 137 deamidation 1.0; percent of population: Met 248 oxidation 3.3; Asp 261/266/276 isomerization 1.0; Asn 311 deamidation 6.3; Asn 380 deamidation 9.5; Asn 385 deamidation 1.0; Asn 430 deamidation 1.3; Lys 443 clipped 97.8
notes: 5 mM AAPH, quenched at once with methionine; also called AAPH T0; AAPH Oxidation
As to B3, in experiment [4], the “Relative Potency, MSD Binding” value amounted to 79%. Further, the “Relative Potency (Potency by cell-based bioassay)” value in experiment [7] is 102%. For the same molecule, the Kd in experiment [5] was found to be 1660 nM. Moreover, in [6], the “Relative Potency, Cell-Based Bioassay” value was 102%.

B4: Dostarlimab, AAPH treated, 40° C., 3 days (antibody, human IgG4 S228P, kappa)
heavy: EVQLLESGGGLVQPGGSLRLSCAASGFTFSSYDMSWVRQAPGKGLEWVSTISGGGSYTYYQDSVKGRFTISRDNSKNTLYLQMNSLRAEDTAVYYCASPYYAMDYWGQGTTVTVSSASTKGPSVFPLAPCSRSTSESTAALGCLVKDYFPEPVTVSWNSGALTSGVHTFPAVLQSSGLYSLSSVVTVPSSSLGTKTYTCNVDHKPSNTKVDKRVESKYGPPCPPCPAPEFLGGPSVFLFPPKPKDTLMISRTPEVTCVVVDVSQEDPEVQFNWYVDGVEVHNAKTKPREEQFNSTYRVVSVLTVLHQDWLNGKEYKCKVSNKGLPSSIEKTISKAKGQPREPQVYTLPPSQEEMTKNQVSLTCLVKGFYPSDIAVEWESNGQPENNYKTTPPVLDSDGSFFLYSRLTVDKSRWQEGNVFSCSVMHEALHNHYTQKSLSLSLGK
light: DIQLTQSPSFLSAYVGDRVTITCKASQDVGTAVAWYQQKPGKAPKLLIYWASTLHTGVPSRFSGSGSGTEFTLTISSLQPEDFATYYCQHYSSYPWTFGQGTKLEIKRTVAAPSVFIFPPSDEQLKSGTASVVCLLNNFYPREAKVQWKVDNALQSGNSQESVTEQDSKDSTYSLSSTLTLSKADYEKHKVYACEVTHQGLSSPVTKSFNRGEC
modifications: percent of population: Trp 50 oxidation 74.2; percent of population: Met 103 oxidation 7.0; Met 248 oxidation 88.4; Asp 261/266/276 isomerization 1.0; Asn 311 deamidation 6.6; Met 354 oxidation 44.8; Asn 380 deamidation 9.6; Asn 385 deamidation 1.2; Met 424 oxidation 78.2; Lys 443 clipped 97.7
notes: 5 mM AAPH; HMW 11.8%; also called AAPH, 40° C., 3 days
With B4, the “Relative Potency, MSD Binding” value in experiment [4] turned out to be 57%. Besides, the equilibrium dissociation constant (Kd) in [5] is 8330 nM. For the same molecule, the “Relative Potency, Cell-Based Bioassay” value in experiment [6] is 14%.

B5: Dostarlimab, thermally degraded, 50° C., 3 weeks (antibody, human IgG4 S228P, kappa)
heavy: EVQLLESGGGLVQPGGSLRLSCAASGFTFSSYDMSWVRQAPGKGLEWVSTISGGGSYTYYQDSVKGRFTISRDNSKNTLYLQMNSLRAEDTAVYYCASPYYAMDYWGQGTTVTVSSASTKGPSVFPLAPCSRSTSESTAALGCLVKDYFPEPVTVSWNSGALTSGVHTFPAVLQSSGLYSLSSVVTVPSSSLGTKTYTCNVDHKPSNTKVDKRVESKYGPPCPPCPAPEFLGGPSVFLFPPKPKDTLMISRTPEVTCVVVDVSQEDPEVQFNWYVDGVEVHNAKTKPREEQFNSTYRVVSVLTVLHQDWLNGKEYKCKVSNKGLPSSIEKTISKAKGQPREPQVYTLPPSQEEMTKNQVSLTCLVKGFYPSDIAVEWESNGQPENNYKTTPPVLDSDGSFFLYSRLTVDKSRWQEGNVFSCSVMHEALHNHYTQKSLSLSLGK
light: DIQLTQSPSFLSAYVGDRVTITCKASQDVGTAVAWYQQKPGKAPKLLIYWASTLHTGVPSRFSGSGSGTEFTLTISSLQPEDFATYYCQHYSSYPWTFGQGTKLEIKRTVAAPSVFIFPPSDEQLKSGTASVVCLLNNFYPREAKVQWKVDNALQSGNSQESVTEQDSKDSTYSLSSTLTLSKADYEKHKVYACEVTHQGLSSPVTKSFNRGEC
modifications: percent of population: Asp 151/167 isomerization 2.5; percent of population: Met 248 oxidation 7.6; Asp 261/266/276 isomerization 13.1; Asn 311 deamidation 7.4; Met 354 oxidation 4.2; Asn 380 deamidation 14.7; Asn 385 deamidation 5.9; Asp 395/397/409 isomerization 2.2; Met 424 oxidation 3.5; Asn 430 deamidation 2.0; Lys 443 clipped 97.8
notes: Mixture; HMW 11.2%, acidic peaks 59.1%; also called Thermal Degradation
Turning to B5, the “Relative Potency, MSD Binding” value in experiment [8] amounted to 76%. The molecule also displayed a Kd in experiment [9] of 2290 nM. For the same molecule, the “Relative Potency, Cell-Based Bioassay” value in experiment [10] turned out to be 86%. For the same molecule, in experiment [7], the “Relative Potency (Potency by cell-based bioassay)” value was 86%.

B6: Dostarlimab (antibody, human IgG4 S228P, kappa)
heavy: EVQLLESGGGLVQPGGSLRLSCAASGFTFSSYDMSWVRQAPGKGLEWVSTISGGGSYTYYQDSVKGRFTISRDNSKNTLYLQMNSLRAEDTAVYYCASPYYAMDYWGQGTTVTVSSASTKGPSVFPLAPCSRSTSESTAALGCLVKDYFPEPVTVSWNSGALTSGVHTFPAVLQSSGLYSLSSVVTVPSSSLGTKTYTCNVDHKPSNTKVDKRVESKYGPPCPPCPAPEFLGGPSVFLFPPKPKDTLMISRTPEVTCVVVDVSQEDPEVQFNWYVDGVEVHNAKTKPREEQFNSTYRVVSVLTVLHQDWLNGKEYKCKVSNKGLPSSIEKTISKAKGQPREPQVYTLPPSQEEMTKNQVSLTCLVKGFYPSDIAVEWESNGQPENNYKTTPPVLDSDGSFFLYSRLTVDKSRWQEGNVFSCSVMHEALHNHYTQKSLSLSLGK
light: DIQLTQSPSFLSAYVGDRVTITCKASQDVGTAVAWYQQKPGKAPKLLIYWASTLHTGVPSRFSGSGSGTEFTLTISSLQPEDFATYYCQHYSSYPWTFGQGTKLEIKRTVAAPSVFIFPPSDEQLKSGTASVVCLLNNFYPREAKVQWKVDNALQSGNSQESVTEQDSKDSTYSLSSTLTLSKADYEKHKVYACEVTHQGLSSPVTKSFNRGEC
modifications: N-glycan at Asn 293 (99% occupancy)
notes: also called dostarlimab drug substance (DS); anti-PD-1 antibody
For B6, the Kd in experiment [11] turned out to be 1750 nM.

B7: Dostarlimab, base degraded, T0 (exposed to pH 9.0, no incubation) (antibody, human IgG4 S228P, kappa)
heavy: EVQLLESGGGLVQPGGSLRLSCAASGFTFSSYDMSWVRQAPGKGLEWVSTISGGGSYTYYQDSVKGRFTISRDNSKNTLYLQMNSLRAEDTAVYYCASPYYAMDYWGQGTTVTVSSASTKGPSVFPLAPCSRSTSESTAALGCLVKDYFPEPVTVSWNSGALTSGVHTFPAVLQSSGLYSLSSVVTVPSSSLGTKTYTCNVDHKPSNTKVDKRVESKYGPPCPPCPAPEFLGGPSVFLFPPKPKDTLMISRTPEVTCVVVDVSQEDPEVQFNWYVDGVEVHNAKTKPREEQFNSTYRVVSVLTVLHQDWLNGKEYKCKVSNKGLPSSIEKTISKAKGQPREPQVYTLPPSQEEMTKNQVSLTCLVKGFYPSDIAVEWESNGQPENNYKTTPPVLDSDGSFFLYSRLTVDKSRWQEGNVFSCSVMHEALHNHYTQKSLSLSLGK
light: DIQLTQSPSFLSAYVGDRVTITCKASQDVGTAVAWYQQKPGKAPKLLIYWASTLHTGVPSRFSGSGSGTEFTLTISSLQPEDFATYYCQHYSSYPWTFGQGTKLEIKRTVAAPSVFIFPPSDEQLKSGTASVVCLLNNFYPREAKVQWKVDNALQSGNSQESVTEQDSKDSTYSLSSTLTLSKADYEKHKVYACEVTHQGLSSPVTKSFNRGEC
modifications: percent of population: Asn 137 deamidation 1.3; percent of population: Met 248 oxidation 2.8; Asn 311 deamidation 6.8; Asn 380 deamidation 10.8; Asn 385 deamidation 1.8; Lys 443 clipped 96.9
notes: Mixture; HMW 8.1%, acidic peaks 27.2%
B7 gave a Kd in experiment [12] of 2260 nM.
